20 sequences from the DeepSol protein solubility set can be followed below.

This series can be described thus: soluble on expression in E. coli; label from the status in PepcDB or PDB records.
On to “VAVNNISNLINSRIRLTGISSGLDTDAIIEQLMSVERAKVDKIKQEKQILEWKRDIYRDIINKLRSITDEYFNVLKPKTNFTSQSAFTSFKISSSNESVVTVTANASAASKVHSITVHSLASAAKIVGTSGLVDGIKGSNAVNTLSLQGKEINVTLDGVTKTIALEDYTSLSDLETKLESALAKAFGTGKIDVVTTGGSIEFKCLLNGSTLSISDTANNYISSLGFSNGQKNFITGNSDVNSDFSLYTDGSFKITVGNGTAQTINISDATSIDDLVAKIQQAIDSNSELSGKVHVSNDGSKLTFISVSGETVKLTSGDSNNVLDKLGFSDGATITATSSTVIDLSGNEKGKTFIININGVDKIIEIDKDYNDLDELASYIQNQLGGTVNVTKDASGSRLVFSTGGADRLIFKKGPEDGLEKLGFTANDNRSNRISLTTKLDSLSTIFKNDLNIADPDANVVFTINGQTIDVGKTYANATLSDVMNAINSSSAGVKITYDSLNDRFIMESKTMGATSEIELTDTDPANGLLKAMGLIGGTYTAGTDAEFDLDGVTGMKRSTNEFTIEGVTYSLKGVSSEPVKIDVKADIDAVVENIKNFVNSYNEMLAKINSVLTEERYRDYLPLTDDQKKAMSEDDIKLWEQKAKSGLLRSDSILENIVTNLRRALYDKVEGCSLSLYQIGITTGSYQDKGKLVIDEEKLRAALTDNYDAVVQLFTQGSQYTYSEALNDPNKRAVRYKEAGIAQRIYDILQDNIRITRNANGKKGILLEKAGIAGDLTEYDNLIVNEIKAKETLIDEMLVKIYKKEEYYYSKFAAMEKMLDAMNSQSMWLTQQFSNYY”, for which the “soluble on expression in E. coli” value was “soluble”.
Turning to “MNSIWARLRLASSQLPIGGYSYSQGLEAALDNGWVRDAESARTWLVDQLQLNLARFEAPLLAGLLRAALIGDWAACDAASERHRASRETRELAQESRQMGFSLHQLLEALPELDAPGRAWLARQDPPNLAAAWAMAARAWRLDAEEALSAWFWSWLENQLAVLMKTLPLGQLAAQKLASSLLPELDRACAEALRRPAVEGSAAFGLALASMTHETQYSRLFRSLEHHHHHH”, the “soluble on expression in E. coli” value is recorded as “not soluble”.
The value for “IKQMLLDWCRAKTRGYEHVDIQNFSSSWSDGMAFCALVHNFFPEAFDYGQLSPQNRRQNFEVAFSSAETHADCPQLLDTEDMVRLREPDWKCVYTYIQEFYRCLVQKGLVKTKKS” was “soluble”; that for “MSQPSGPPIGFSNPDYIPPKALDLLKPALTIRAPPEETGMLGELQEDVLQVLSLPCRHTNACLPACLQSLPILCSF” was “soluble”.
The value for “SLPHPAPGPADAEDPRLAEVMAAVRSSRRYQSVAPETVRRLAANALVASRGDLAEAVKRTKRSLHEVFGAYLPSPPKYDALLRQLRDAVDAGDDEAVRAVLHRAMSTHASTRERLPILEEFYREVFARLDAPTSVRDLACGMNPLAAPWMPGSDAFTYHASDIDTRLTEFLAAALETLGVAHDVRVRDLMTGVGEVATDVTLLLKTLPCIEAQGRGQGWDLIDAIRSPVVVVSFPTKSLGQRSKGMFNTYSANFGAWLENRPHDVEQVEFRNELVYFVRKNA” was “soluble”; that for “MGSDKIHHHHHHMDVFSANQSAQGIVEEAQQANALDHPAAFEIPRSAVIDIKDSISGRTYPLFIKLPKSYRSQPNKRYPVIYLTDSWYSFQIVSGATRFPMNFNKMDEAIIVAISYSEGSRGSSSRNRDYTPSVNPAWKDITGGAAAHRDFIETTVFDYVERHYRAEAGSRIFVGNSFGGLFGTYVLMSKPEMFDSYILGSPSYWWDKGYIFELEKQFRKSAKPVSAKVFIGIGELEKKVNGVGEDMVKEAQAFYDLMQQWSSRPQTKLLIIPEADHQTAFPTTAIHGLQWILGKCPPKGNCLQGNLN” was “not soluble”; that for “MKAWEIARKPRVVVYPGDPLTYVRAMMRREEEPIAVVVVESEKSEKVVGYITWNEVIQVTSHYSHLRAKDAMLDYPVAFKDDDIGDVYKRMVEEKVYAIPVLESRDNPNLVGVVTVADIVRALRRAGFK” was “not soluble”.
With “MDKKVTDSTQRGYYIVYLFSEDMCRLYLTLTQRVTETPRDEMERVKQDIRQQIPVGGRVQTDNAIRLSASKRAKEYERSVAVYIAYSFDNLPSDEQLVSDLKTMIGYYRQYVERTEKMTPFKQSLSDRSVVEHIHFYITAKGFYYTQEEVMNLFLSLKTKPFVILSGISGTGKTKIAQWLAESVGATEDNGQFILIPVCPDWNDGSDLLGYVDIKGDFKPGPLTNVITEAENHPDKPYFVVLDEMNLARVEHYFSDVLSVMGSRRWENGRITLSRLLPKETAGRDLFLPPNVYIIGTVNMDETTHPFSKKVLDRANTIEFNRIRLDHLDFLRDLPTVAPLSGGQEWFAARLEHHHHHH” the entry was “not soluble”; with “MAHHHHHHMLETQHLHTHSGRLIPPPPRRTPRRKSSVCRTPTRRHNPAESGLSASSKTTRSDVYECRMAPVRGRRESHDSTPGRPRAPEDVNYARGRSMNERPAPSKPQCAIPSKNGRLEESRASTLAVDRERFSQTRWGRSDEIISQSPLAGRSHSLREGEFCDPQALTMRLRHSLSRGYSPQCGHPTQAVVGTELAPPMPRLQGAYGTSKNRYRKTIERFIECQPTNTQKEMQSMLEEYRGRENELCEALSVAYSDSWEASVRGNDTIIQSHKNDNCSKFALNESPGMPEMKDFPRVGNGKGHFDSMNNGECNHNATAENHRQRMTKPTSSSHSTPSRFQDSHQNVDCLRSFSDVATPRRNEGINLSKSAEKERYDEDTSPHLRNGSSGGVNVPLSLGIILEQGETSPRSGGMLTPPIPADLLAR”, “not soluble”.
On to “GPGSMTDLRGVLPSKVISTPSGFVECSTHNVRRKAECCEMKAVLNADMEVIDYICVCKHPFTCKSASERQSNGLAAASNARRNAPDGERSGTAPLVIDASSTSMTAQSQHHHHGGQPSAAGAADKEAGVSTLFAVSFYDASRSTPGPSASATAAAVSPKPSAKDGEDREDEKGKDTRANAMRISDSDSDTDDGDSLDNSPSFTAGATPATAATAASFPAAPRERSRYYDSLQNASTGGHAPPAKVCWGCGMTGHEKPACPNALCRTCHQKRGPYGSPHRCTPVVTPSPLIVYPTPSEWRAATQKTAAAAGEPNGMAAVRCVACNEYGHFDCSTVVLPSSYALVASSSPGPAAVPHTLVPTCCFCGVRGHTVFDCQQREHVNPDYFERRNQLFADSVRRGSGITAAGAPFSNSGSSSGYGHPSQQQRQQRFYGSPTGGAPLSSSSFTRYGNGRGGGGSGQRRERDWCDNREQRVGGSQYSNSRREGSAYNNDSYGGDRDHQRRRYESPSFSRAGGGPAPSSSLLMHGRDRCQEGGQRHHEERSRDSYGGSHQRYSEGEHGGAGSRGHGQRSHYSQQSQHSHRHGSSRRGGRLGDSGYYSDDNLF”, for which the “soluble on expression in E. coli” value was “not soluble”.
The value for “MEYYFTAQKLAVGYDNRPLIENIDFSLKRGEILTLIGPNGAGKSTILKSIARQLSLVSGTIYLDKSDVVTMNGNEFAKKMAVVLTDKLKTELMTCYDVVATGRYPYTGRFGVLSDEDKKAVDEAMELVNVSQIKDKDFTKISDGQRQRVMLSRAICQQPEIIVLDEPTSYLDIKYKLEFLSILQRLKRQKNLTVIMSLHELDMAKRVSDHILCIDGRYVDRYGTPEEVFTDQYVSGLFGITAGSLEHHHHHH” was “not soluble”.
As to “TTLSCKVTSVEAITDTVYRVRIVPDAAFSFRAGQYLMVVMDERDKRPFSMASTPDEKGFIELHIGASEINLYAKAVMDRILKDHQIVVDIPHGEAWLRDDEERPMILIAGGTGFSYARSILLTALARNPNRDITIYWGGREEQHLYDLCELEALSLKHPGLQVVPVVEQPEAGWRGRTGTVLTAVLQDHGTLAEHDIYIAGRFEMAKIARDLFCSERNAREDRLFGDAFAFI”, the “soluble on expression in E. coli” value is listed as “soluble”.
Regarding “MTQIPPSRLHSPLDRLLVEAQRALDTVFGNPPAERPNPAGDTPDAALAPAQRQHAAGLMRINHVGEVCAQGLYFGQAAVARDDHTRQHLLTAAQEETDHLAWCADRLRELESRPSLFNPLWYAGSYALGAVAGLRGDDWSLGFVVETERQVEAHLDEHLETLPETDQRSRAILRVMKIDEARHADHAEQAGARILPPPIPSAMALASKLMKTIAYRFLEHHHHHH”, the “soluble on expression in E. coli” value is “not soluble”.
As to “MGSDKIHHHHHHMALKGKGQAKSPNVDDNPQLGLESEIPVAPRSKRQTRQAEEVQAKDPYLDSVKELDDVLLKFKKYSKSMSSIENKVFSSSGGCFKSKNERVNAYSFTCSSFADKIEEYSYDPANSFPYKRGVKLVLKESSIYVEVGADTDMYGICVDVCEFSSTAYVLPITNNFEGYLVTRNPSIKMGEILDINNNGVIIKAGGGPPTVINAYALSDSFTINFAPEDEHQDQARYPKQEYSINLIKVAIFGNRGLEKTVTPEAGG”, the “soluble on expression in E. coli” value is “not soluble”.
The value for “LSDDRYFIFFNQPKTPEESIQLLGAQAGDTESFRVTLDRIPPQIQKLSFTATLDGAGQMSQVAPGYLRIVAGGEEVARYSFTGSEFSTERAVMLGDFYLKDVWRFAAVGQGFDGGLDALLKNFGGEVAEEEPAVPAQTQSGAAPSFAPPAFGAPAAPAPAPAPAPQPAQGFTPPPGPTPPPAPAPAPSVHAAPTIVGPLHTPPGGTVPPPGPAPYAQ” was “not soluble”; that for “MIRKALLFVEKNETWKKELQIAKSVETVRKRLGQSNLNACSPRKVPLLTVKHVAKQFEYDKIHKDGPVEKWRNIFWSDESKIVLLGGKGSRSYVRRPPRTEYNPRYTFKKFKNCLKGWAFCCLEHHHHHHH” was “not soluble”; that for “MSEAHPPELKKFMDKKLSLKLNGGRHVQGILRGFDPFMNLVVDDTIEMAPGGQMNTIGMVVIRGNSIIMLEALERV” was “soluble”.
Take “MITHAQTILCLDLGSKTGWAICGADGHIFSGVMNFQPRRFEGGGMRYLRFKQWLTEMKMTARRIDAVYFEEVRRHVGTDAAHVYGGLLATLTAWCEHHQIPYEGIPVGTIKKETTGKGNASKEEMIKAVCAKGHAPKDDNEADALAILYLMKEGGVYVQ”: the “soluble on expression in E. coli” value is “not soluble”.
With “MGSDKIHHHHHHMSNIYDAVVVGSGPNGLAAAITLQRKGFAVLVLEAKDTIGGGLRTKELTLPGFKHDVCSAIHPMAVASPFFADIPLDKFGLRFTHAPIAAAHPFDHGGAAILSRSLKDTIALLGKDADNYKRLIEPVIESWPDIAADAMGPLRFPKHPLKMAAFGLNAIRSADCISKRFETEEAKGLWAGMAAHSIQPLTNWASAAIGLVLSAVGHLHGWPIPIGGSQAIADALGSYFISLGGTIQTNVEVTSLNQLPAARAVLFDVTPKQLLKITGDEFSGLYKKQLTNYRYGMGVFKVDWALSEPVPFTSDHCRQAGTVHLGNTFNEIALSEQETSSGKHPEKPFVLFAQQSKFDITRAPQGKHTAWAYCHVPNGSATDMTAAIENQLERFAPGFKDTILAKNTMNTVEIQAYNPNYIGGDINGGIIDIRQLYTRPAVKISPYRTPKKGIYICSSSTPPGGGVHGMCGFHAAQAVIQDLKKQYK” the entry was “not soluble”; with “MGSDKIHHHHHHMIKNTIKKLIEHSIYTTFKLLSKLPNKNLIYFESFHGKQYSDNPKALYEYLTEHSDAQLIWGVKKGYEHIFQQYNVPYVTKFSMKWFLAMPRAKAWMINTRTPDWLYKSPRTTYLQTWHGTPLKKIGLDISNVKMLGTNTQNYQDGFKKESQRWDYLVSPNPYSTSIFQHAFHVSRDKILETGYPRNDKLSHKRNDTEYINGIKTRLNIPLDKKVIMYAPTWRDDEAIREGSYQFNVNFDIEALRQALDDDYVILLRMHYLVVTRIDEHDDFVKDVSDYEDISDLYLISDALVTDYSSVMFDFGVLKRPQIFYAYDLDKYGDELRGFYMDYKKELPGPIVENQTALIDALKQIDETANEYIEARTVFYQKFCSLEDGQASQRICQTIFK”, “not soluble”.
